According to CN111718416A:

Biological target: 硫氧还蛋白(Thioredoxin，Trx)
Assay: indirect ELISA, Trx coated at 3 μg/ml, supernatant of transiently transfected CHO cells diluted 1000-fold, goat anti-mouse HRP

Sequence of 硫氧还蛋白(Thioredoxin，Trx) (P0AA25 2-109): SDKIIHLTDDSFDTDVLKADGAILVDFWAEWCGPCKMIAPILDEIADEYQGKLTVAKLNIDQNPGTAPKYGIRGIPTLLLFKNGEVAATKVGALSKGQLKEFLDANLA

OD (450nm, 参考630nm): > 1 OD
B1: 实施例4的硫氧还蛋白的单克隆抗体(WT) (antibody, mouse IgG1, kappa, V domains shown)
VH: EVKLEESGGGLVQPGGSMKLSCAASGFTFSDGWMDWVRQSPEKGLEWVAELRNDAHNHRTYYAESLKGRFTISRDDSQSNVFLQMNSLRAEDTGIYYCTKRVPEGTGSWFAYWGQGTLVTVSA
VL: DIVMTQSPSSLGMSVGQKVTMSCKSSQSILNSINQKNYLAWYQQRPGQSPKLLVYFGSTRDSGVPDRFIGSGSGTDFTLTISSLQAEDLADYFCQQNYTTPPTFGGGTKLEIKR
